How the values were obtained:
[1] = target: T1, human folate receptor alpha (hFRα), recombinant protein (human, UniProt P15328 25-233); experiment: BLI, biotinylated FOLR1 on streptavidin biosensors
T1 construct: Bought recombinant proteins (His-tagged, or biotinylated via Avi-tag, e.g. AcroBiosystems FO1-H82E2, F01-H52H1); also called hFOLR1; huFOLR1
Experimental: (§1) The off-rates of the 2HFO9 ^{∘}FIG. 5A) and 2MFR67 ^{∘}FIG. 5B) mutants and the three wild-type ^{∘}WT) VHHs from family 3 were determined by biolayer interferometry ^{∘}BLI) on both mouse and human biotinylated folate receptor alpha ^{∘}FOLR1) that was immobilized on streptavidin biosensors. The off-rates were calculated using a 1:1 binding model. The fold change compared to the off-rates of the corresponding WT VHH is represented as the WT VHH off-rate divided by the off-rate of the mutant for the VHHs that show an improved off-rate compared to the WT. For the VHHs that show a worse off-rate compared to the WT, the fold change is represented as the negative value of the mutant VHH off-rate divided by the WT off-rate. The red bars represent the WT 2HFO9 and 2MFR67 in the upper and lower panel respectively.

[2] = target: T2, mouse folate receptor alpha (mFRα), recombinant protein (mouse, UniProt P35846 25-232); experiment: BLI, biotinylated FOLR1 on streptavidin biosensors
T2 construct: Bought recombinant proteins (e.g. biotinylated, Acro Biosystems FO1-M82E9); also called mFOLR1; Ms FOLR1
Experimental: as §1

[3] = target: T2, mouse folate receptor alpha (mFRα), …; experiment: method of this value not stated (ELISA, BLI and FACS named)
[4] = target: T2, mouse folate receptor alpha (mFRα), …; experiment: ELISA, periplasmic extract
Description: (§2) From the lymphocytes of each llama a separate VHH library was constructed to select and screen for the presence of antigen-specific VHHs. To this end, total RNA from peripheral blood lymphocytes was used as template for first strand cDNA synthesis with an oligo ^{∘}dT) primer. Using this cDNA, the VHH encoding sequences were amplified by PCR, digested with PstI and NotI, cloned into the PstI and NotI sites of the phagemid vector pMECS and transformed into E. coli to generate VHH libraries. To enrich these libraries for FRα ^{∘}or FOLR1, as used interchangeably herein)-specific VHHs, a combinatorial panning approach on recombinant human and mouse FOLR1 was used followed by random selection and screening of clones by ELISA for the presence of antigen-specific VHHs in their periplasmic extracts ^{∘}PEs). In order to gauge the cross-reactivity for human and mouse FOLR1, each clone was tested on both antigens.
(§3) After panning of core76/77 on human and mouse folate receptor alpha ^{∘}FRα), […] were randomly selected from the second and third rounds and analyzed by ELISA on both human and mouse FRα for the presence of FRα-specific VHHs in their periplasmic extracts ^{∘}PE). This led to the identification of 98 hits. For these 98 hits, the off-rate ^{∘}koff) in the PE was determined by biolayer interferometry ^{∘}BLI) on both mouse and human FRα that was directly immobilized onto AR2G biosensors. The off-rates were calculated using a 1:1 binding model. […] Abbreviations: SE: standard error.

[5] = target: T2, mouse folate receptor alpha (mFRα), …; experiment: BLI, FRα on AR2G biosensors, 1:1 model
Experimental: As a next step, the kinetic binding constants were determined using BLI ^{∘}Table 3). […] Similar to the ELISA results ^{∘}FIG. 1A-B), higher binding affinities were measured for mouse FRα than human FRα, with KD values […] one order of magnitude in most cases. […] For 3HFO28, binding to human FRα could not be confirmed by BLI, and this VHH was excluded from further characterization.
The kinetic parameters were calculated using a 1:1 binding model.

[6] = target: T3, human folate receptor beta (FRβ) (human, UniProt P14207 17-230, limits assumed); experiment: method not named (follows the ELISA of Example 3)
T3 construct: also called hFOLR2; human FOLR2

[7] = target: T2, mouse folate receptor alpha (mFRα), …; experiment: BLI, periplasmic extract, FRα on AR2G biosensors
Experimental: as §3

[8] = target: T2, mouse folate receptor alpha (mFRα), …; experiment: ELISA on recombinant mouse FOLR1, cMyc tag detection, normalised binding, non-linear fit
Experimental: (§4) Data were normalized and technical replicates were plotted as mean±SD. Data were fitted by non-linear regression and the half-maximal effective concentration ^{∘}EC50) was calculated using GraphPad Prism 9 software. ^{∘}FIG. 1C and FIG. 1D) Binding affinity determination of anti-FOLR1 VHHs for native FOLR1. Mouse ^{∘}FIG. 1C) or human FOLR1 FIG. 1D) was overexpressed on HEK293T cells and binding of the anti-FOLR1 VHHs was assessed using flow cytometry. The mean fluorescence intensity ^{∘}MFI) of the phycoerythrin signal was plotted for each VHH concentration. Data were fitted by non-linear regression using GraphPad Prism 9 software. ^{∘}FIG. 1E) Determination of the competition of representative family members with folic acid ^{∘}FA) using ELISA. Mouse FOLR1 was coated on the plate and was pre-incubated with or without 100 μM FA before adding the VHHs. Data were fitted by non-linear regression using GraphPad Prism 9 software.
(§5) In a first step, binding affinity and cross-reactivity of the purified VHHs to human and mouse FRα was assessed by ELISA, using detection of the cMyc tag ^{∘}FIG. 1A-B). […] 2HFO19 ^{∘}family 1) was the best binder of all tested VHHs to both mouse and human FRα with an EC₅₀ of 0.1 nM and 0.4 nM respectively ^{∘}FIG. 1A-B).

[9] = target: T1, human folate receptor alpha (hFRα), …; experiment: ELISA on recombinant human FOLR1, cMyc tag detection, normalised binding, non-linear fit
Experimental: as §4, §5

[10] = target: T1, human folate receptor alpha (hFRα), …; experiment: BLI, periplasmic extract, FRα on AR2G biosensors; unpurified periplasmic extract, BLI off-rate screen
Experimental: as §3

[11] = target: T1, human folate receptor alpha (hFRα), …; experiment: ELISA, periplasmic extract; unpurified periplasmic extract, PE-ELISA (ratio of coated to uncoated well)
Description: as §2, with “In order to gauge the cross-reactivity for human and mouse FOLR1, each clone was tested on both antigens.” left out
After panning of core76/77 on human and mouse folate receptor alpha ^{∘}FRα), 95 colonies were randomly selected from the second and third rounds and analyzed by ELISA on both human and mouse FRα for the presence of FRα-specific VHHs in their periplasmic extracts ^{∘}PE). […] For these 98 hits, the off-rate ^{∘}koff) in the PE was determined by biolayer interferometry ^{∘}BLI) on both mouse and human FRα that was directly immobilized onto AR2G biosensors. The off-rates were calculated using a 1:1 binding model. […]

T1 sequence (P15328 25-233 limits assumed): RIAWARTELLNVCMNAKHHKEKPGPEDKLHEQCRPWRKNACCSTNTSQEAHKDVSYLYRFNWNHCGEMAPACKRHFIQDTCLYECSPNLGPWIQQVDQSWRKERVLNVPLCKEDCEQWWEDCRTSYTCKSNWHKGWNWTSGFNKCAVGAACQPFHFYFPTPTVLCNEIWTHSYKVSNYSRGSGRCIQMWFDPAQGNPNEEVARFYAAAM
T2 sequence (P35846 25-232 limits assumed): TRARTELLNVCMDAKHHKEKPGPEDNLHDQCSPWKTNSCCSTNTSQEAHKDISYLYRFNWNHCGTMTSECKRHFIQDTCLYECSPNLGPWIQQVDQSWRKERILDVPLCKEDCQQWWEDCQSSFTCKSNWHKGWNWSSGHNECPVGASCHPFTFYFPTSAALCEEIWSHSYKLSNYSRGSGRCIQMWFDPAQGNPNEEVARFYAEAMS
T3 sequence (P14207 17-230 limits assumed): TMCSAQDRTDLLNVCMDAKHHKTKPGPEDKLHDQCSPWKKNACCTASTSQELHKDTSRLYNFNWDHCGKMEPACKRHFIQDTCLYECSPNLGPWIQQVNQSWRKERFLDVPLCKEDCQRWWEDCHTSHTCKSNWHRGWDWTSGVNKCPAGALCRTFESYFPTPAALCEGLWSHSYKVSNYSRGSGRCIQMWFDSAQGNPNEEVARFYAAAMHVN

Fold hu/ms (koff) [1] | koff [1] | Fold to 2HF042 (koff) [2] | koff [2] | Kd [3] | PE-ELISA (ratio to uncoated well) [4] | Kd [5] | koff [5] | kon [5] | binding result [6] | koff [7] | EC50 [8] | EC50 [9] | koff [10] | PE-ELISA (ratio to uncoated well) [11] | Binder
7 | 0.0154 s⁻¹ | 1 | 0.00222 s⁻¹ | 23.3 nM | – | – | – | – | – | – | – | – | – | – | 2HFO42-NT (2HFO42 fused to neurotensin) (VHH) VHH: QVQLQESGGGLVQAGGSLRLSCAASGSGFSGMIMGWYRQVPGKQRELVATVTSHGTTNYADSVKGRFTISRDNAKNTVLLQMNSLKPEDTAVYYCNAHFPGIYWGKGTQVTVSS
– | – | – | – | – | 34.9 | 12.6 nM | 0.00582 s⁻¹ | 464000 M⁻¹ s⁻¹ | no binding | 0.00425 s⁻¹ | 84.3 nM | 1.5 nM | 0.00827 s⁻¹ | 35.6 | VHH 3HFO28 (family 7) (VHH) VHH: QVQLQESGGGLVQPGGSLRLSCAASGSTLDRYEIGWFRQAPGKGRERVSCISTTSSTYEDSVKGRFTISRDNAKNTVYLQMNSLKPEDTAVYYCATVRVAWSTCFPTGDSWGKGTQVTVSS
